The values that follow come from CN112125972A (SINOCELLTECH LTD, dated 2020).

The target of test [1] is T1, HPV58 VLP (Human papillomavirus type 58, UniProt P26535 27-524).
T1 construct: also called HPV58完整VLP蛋白
T1 sequence: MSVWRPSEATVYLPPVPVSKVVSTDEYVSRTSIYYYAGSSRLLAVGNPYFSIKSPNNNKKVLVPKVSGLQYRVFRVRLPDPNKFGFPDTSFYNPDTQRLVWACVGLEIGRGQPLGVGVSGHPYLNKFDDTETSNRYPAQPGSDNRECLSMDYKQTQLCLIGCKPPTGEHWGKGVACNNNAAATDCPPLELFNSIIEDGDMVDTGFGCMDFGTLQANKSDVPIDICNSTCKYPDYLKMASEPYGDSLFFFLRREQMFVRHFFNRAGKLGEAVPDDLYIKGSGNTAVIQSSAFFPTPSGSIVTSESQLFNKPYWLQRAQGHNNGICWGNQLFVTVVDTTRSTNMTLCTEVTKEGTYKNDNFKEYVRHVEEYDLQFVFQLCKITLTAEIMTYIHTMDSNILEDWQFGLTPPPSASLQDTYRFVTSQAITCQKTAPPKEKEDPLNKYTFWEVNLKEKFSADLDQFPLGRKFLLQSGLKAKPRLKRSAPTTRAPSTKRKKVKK
In words: indirect ELISA, VLP coated at 2 μg/mL, antibody at 10 ng/mL. In general terms: ELISA stands for enzyme-linked immunosorbent assay.

In test [2] the target is T2, HPV6 VLP (Human papillomavirus type 6, UniProt P69899 1-500).
T2 construct: also called HPV6完整VLP蛋白
T2 sequence: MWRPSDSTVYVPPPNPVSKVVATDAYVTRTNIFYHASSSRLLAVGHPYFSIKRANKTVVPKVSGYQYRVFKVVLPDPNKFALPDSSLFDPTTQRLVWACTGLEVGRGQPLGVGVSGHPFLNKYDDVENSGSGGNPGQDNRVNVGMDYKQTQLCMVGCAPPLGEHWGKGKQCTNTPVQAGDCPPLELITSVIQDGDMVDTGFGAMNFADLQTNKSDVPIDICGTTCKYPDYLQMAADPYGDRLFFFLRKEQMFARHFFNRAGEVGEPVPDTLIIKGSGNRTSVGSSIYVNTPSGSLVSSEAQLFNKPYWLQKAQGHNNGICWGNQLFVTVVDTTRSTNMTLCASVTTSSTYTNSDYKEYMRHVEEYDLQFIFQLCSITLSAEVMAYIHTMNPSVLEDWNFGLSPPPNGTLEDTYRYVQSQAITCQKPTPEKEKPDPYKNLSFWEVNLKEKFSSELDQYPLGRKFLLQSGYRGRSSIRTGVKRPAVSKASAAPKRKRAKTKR
The test is described as above.

Test [3] concerns the target T3, HPV11 VLP (Human papillomavirus type 11, UniProt P04012 1-501).
T3 construct: also called HPV11完整VLP蛋白
T3 sequence: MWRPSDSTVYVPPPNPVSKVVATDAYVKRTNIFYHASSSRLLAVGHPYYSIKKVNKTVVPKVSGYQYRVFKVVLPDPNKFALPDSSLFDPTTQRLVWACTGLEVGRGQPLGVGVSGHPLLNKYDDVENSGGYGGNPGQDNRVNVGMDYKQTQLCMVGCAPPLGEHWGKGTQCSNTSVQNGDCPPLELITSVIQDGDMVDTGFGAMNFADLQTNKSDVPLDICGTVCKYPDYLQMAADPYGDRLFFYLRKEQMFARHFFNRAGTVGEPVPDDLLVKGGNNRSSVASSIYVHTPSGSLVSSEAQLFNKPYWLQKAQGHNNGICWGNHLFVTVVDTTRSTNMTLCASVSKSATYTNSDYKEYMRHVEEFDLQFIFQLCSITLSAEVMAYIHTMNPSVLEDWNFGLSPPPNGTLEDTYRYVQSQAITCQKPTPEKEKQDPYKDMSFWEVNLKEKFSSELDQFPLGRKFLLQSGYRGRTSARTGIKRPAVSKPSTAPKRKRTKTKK
Described as above.

Test [4] concerns the target T4, HPV18 VLP (Human papillomavirus type 18, UniProt P06794 62-568).
T4 construct: also called HPV18完整VLP蛋白
T4 sequence: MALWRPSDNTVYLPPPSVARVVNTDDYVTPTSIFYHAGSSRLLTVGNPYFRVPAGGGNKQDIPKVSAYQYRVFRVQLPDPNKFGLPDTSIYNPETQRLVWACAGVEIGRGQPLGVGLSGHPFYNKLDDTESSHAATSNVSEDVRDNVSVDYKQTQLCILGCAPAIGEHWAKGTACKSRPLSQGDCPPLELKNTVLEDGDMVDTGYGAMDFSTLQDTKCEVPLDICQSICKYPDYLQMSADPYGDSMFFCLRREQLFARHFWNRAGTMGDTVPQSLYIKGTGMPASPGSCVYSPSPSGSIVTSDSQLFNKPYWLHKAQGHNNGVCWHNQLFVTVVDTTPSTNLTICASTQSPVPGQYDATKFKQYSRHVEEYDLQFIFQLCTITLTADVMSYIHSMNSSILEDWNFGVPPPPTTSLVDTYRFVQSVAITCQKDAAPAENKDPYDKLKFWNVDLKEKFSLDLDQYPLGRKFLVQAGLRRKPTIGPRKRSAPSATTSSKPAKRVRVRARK
The description is as above.

Test [5] deals with T5, HPV33 VLP (Human papillomavirus type 33, UniProt P06416 1-499).
T5 construct: also called HPV33完整VLP蛋白
T5 sequence: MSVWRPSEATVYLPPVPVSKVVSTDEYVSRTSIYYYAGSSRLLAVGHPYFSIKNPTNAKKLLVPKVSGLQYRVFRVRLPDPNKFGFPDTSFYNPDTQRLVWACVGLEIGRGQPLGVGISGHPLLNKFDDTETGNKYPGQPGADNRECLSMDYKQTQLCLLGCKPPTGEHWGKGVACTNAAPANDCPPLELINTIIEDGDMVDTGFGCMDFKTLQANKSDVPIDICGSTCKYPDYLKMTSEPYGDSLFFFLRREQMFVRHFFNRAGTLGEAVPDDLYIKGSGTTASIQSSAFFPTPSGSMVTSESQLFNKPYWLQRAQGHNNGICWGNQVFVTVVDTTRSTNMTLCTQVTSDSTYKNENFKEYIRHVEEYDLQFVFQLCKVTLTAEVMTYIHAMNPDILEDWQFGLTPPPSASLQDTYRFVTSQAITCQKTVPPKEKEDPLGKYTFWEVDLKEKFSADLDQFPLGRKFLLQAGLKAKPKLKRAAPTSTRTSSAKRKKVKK
The test is described as above.

In test [6] the target is T5, HPV33 VLP. Put plainly: double-antibody sandwich ELISA, R001 as capture and HRP-R001 as detection, mixture of HPV types.

B1: HPV 16 R001 (antibody, V domains shown)
VH: QSVKESEGRLVTPGTPLTLTCTASGFTMSRYHMTWVRQAPGKGLEWIGIIYARNSDTYYANWAKGRFTISKTSTTVDLKITSPTIEDTATYFCARVDSDSSGAFDRLDLWGQGTLVTVSS
VL: DPMLTQTAASVEVAVGGTVTIKCQASQSIGGYLSWYQQKPGQRPKLLIYRASTLASGVPSRFKGSGSGTEYTLTFSGVECADAAAYYCQQGYTSSDINNAFGGGTEVVVK
notes: An HRP-labelled form served as detection antibody in the sandwich ELISA; also called HPV16.001; 单克隆抗体HPV 16 R001
For the molecule B1, the OD450-blank came to 0.003 OD450 in test [1]; 0.004 OD450 in test [2]; 0.001 OD450 in test [3]; 0 OD450 in test [4]; 0.001 OD450 in test [5]. In addition, the binding result in test [6] is on record as “no binding (tested: 50ng/mL，25ng/mL，12.5ng/mL)”.
